Usually Kd stands for the free concentration of one partner at which half of the binding sites on the other are occupied at equilibrium, for simple one-to-one binding. A low value points to tighter binding.

For assay [1], the system named is RBP SH3-I. Briefly: Isothermal titration calorimetry (ITC), peptide titrated into RBP SH3-I. The assay is classed as binding, Drosophila. As to conditions: 25°C, result in words. (In ITC the heat of successive injections is recorded.)
Assay [2] relates to RBP SH3-II+III. Briefly: Isothermal titration calorimetry (ITC), peptide titrated into tandem RBP SH3-II+III. The assay is classed as binding, Drosophila. As to conditions: second and third SH3 domain of RBP. As for the experimental part: ITC experiments were performed at 25°C on an iTC200 microcalorimeter (Malvern Instruments Ltd., United Kingdom). The same peptides were employed as used for the co-crystallization experiments (see below). Lyophilized peptides were resuspended in the final buffer of the proteins (10 mM Tris-HCl pH 7.4, 100 mM NaCl). RBP SH3-II and SH3-III were both provided at a concentration of 150 µM, RBP SH3-II+III was provided at 78 µM. The proteins were titrated with 16 injections of 2.5 µl of either Aplip1, Cac, RIM1 or RIM2 peptide at a concentration of 2 mM with 2-min intervals. The released heat was obtained by integrating the calorimetric output curves. Binding parameters were calculated using the Origin5 software using the ‘One Set of Sites’ curve fitting model provided by the software.
For crystallization experiment the RBP SH3-II was concentrated to 56 mg/ml and the RBP SH3-III to 62 mg/ml. The same peptides as for ITC measurements were used and synthesized at the Leibniz Institute for Molecular Pharmacology with N-terminal acetylation and C-terminal amidation. The unsolubilized peptides were mixed in a fivefold molar excess with the protein solution and incubated for 2 hr on ice. Insoluble peptide was removed by centrifugation (16,000×g for 1 min) prior to crystallization experiments. All crystallization experiments were carried out at 291 K in a sitting drop setup. […]

In assay [3] the test system is RBP SH3-II. Briefly: Semi-quantitative liquid Y2H ß-galactosidase assay, bait RBP SH3-II. Format: cell-based, Drosophila. As to conditions: n = 3 independent experiments, mean ± SEM. The source says:
(§1) The plasmids (pP6 and pB27) encode tryptophan (Trp) and leucine (Leu) biosynthesis genes, and were successfully double transformed into the TATA strain lacking genes for synthesis of Leu and Trp which can be followed by positive growth in LT media. Reporter genes for the protein–protein interaction are HIS3, which can be later detected by growth on plates lacking histidin, as well as lacZ which allows the detection of interaction in a more quantitative fashion with a β-galactosidase assay. To transform the yeast cells with the pP6 and pB27 vector respectively the LiAc/single strand DNA/PEG technique was used ([Gietz and Schiestl, 2007]).
(§2) The assay was carried out as described in JH Miller ‘Experiments in Molecular Genetics’ 1972 Cold Spring Harbor Laboratories pages 352–355.
(§3) The RBP constructs for Y2H were cloned into pB27 bait vector. The RBP cDNA clone AT04807 (Drosophila Genomics Resource Centre) was used as a template for PCR reaction. For amplification the following primers were used: […]

Assay [4] concerns RBP SH3-III. The assay is described as follows: Semi-quantitative liquid Y2H ß-galactosidase assay, bait RBP SH3-III. Format: cell-based, Drosophila. As to conditions: n = 3 independent experiments, mean ± SEM.
Description: as §1, §2, §3

The subject of assay [5] is RBP SH3-II* (Prolin1373 → Leucin). The assay is described as follows: Semi-quantitative liquid Y2H ß-galactosidase assay, bait point-mutated RBP SH3-II*. Format: cell-based, Drosophila. As to conditions: n = 3 independent experiments, mean ± SEM.
Description: as §1, §2
(§4) By applying the site-directed mutagenesis strategy, different constructs were designed for RBP using mutated primers. Mutagenesis was carried out by Dr Martin Meixner (SMB. GmbH, Germany,). The following point mutations were used:
RBP SH3-II*: Prolin1373 → Leucin

Assay [6] concerns RBP SH3-III* (Prolin1500 → Leucin). The assay is described as follows: Semi-quantitative liquid Y2H ß-galactosidase assay, bait point-mutated RBP SH3-III*. Format: cell-based, Drosophila. As to conditions: n = 3 independent experiments, mean ± SEM.
Description: as §1, §2, §4
RBP SH3-III*: Prolin1500 → Leucin

Assay [7] addresses T1, RBP SH3-II (residue 1318–1382; ITC and crystallisation construct) (D. melanogaster).
T1 chain: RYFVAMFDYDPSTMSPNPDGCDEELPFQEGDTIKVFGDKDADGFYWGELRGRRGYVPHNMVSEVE
Briefly: ITC.

Assay [8] deals with T2, RBP SH3-II+III (ITC construct) (D. melanogaster).
T2 chain: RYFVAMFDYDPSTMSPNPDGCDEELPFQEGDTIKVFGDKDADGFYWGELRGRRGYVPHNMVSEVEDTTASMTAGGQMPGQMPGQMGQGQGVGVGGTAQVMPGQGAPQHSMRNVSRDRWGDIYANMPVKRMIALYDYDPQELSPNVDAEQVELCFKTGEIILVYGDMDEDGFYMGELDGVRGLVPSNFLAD
The assay is described as follows: ITC.

For assay [9], the target named is T3, RBP SH3-III (ITC construct) (D. melanogaster).
T3 chain: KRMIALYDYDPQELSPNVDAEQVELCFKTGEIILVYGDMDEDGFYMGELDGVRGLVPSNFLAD
Briefly: ITC.

Assay [10] deals with T4, RBP SH3-II (residue 1318–1382; ITC and crystallisation construct) (D. melanogaster).
T4 construct: pGEX-6P1, EcoRI/XhoI; also called RBP-BP SH3-II; source: E. coli BL21-CodonPlus-RIL, purified (glutathione sepharose, PreScission cleavage, Superdex 75); not shown: GST, N-terminal, cleaved
T4 chain: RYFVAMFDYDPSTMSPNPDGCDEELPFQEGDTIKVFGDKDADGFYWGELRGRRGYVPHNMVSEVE
Briefly: ITC; 25°C, iTC200; RBP SH3-II and SH3-III at 150 µM, SH3-II+III at 78 µM in the cell, titrated with 16 injections of 2.5 µl peptide at 2 mM; 10 mM Tris-HCl pH 7.4, 100 mM NaCl; 'One Set of Sites' model. As to conditions: both partners purified.

Assay [11] deals with T5, RBP SH3-III (ITC construct) (D. melanogaster).
T5 construct: it may be the same protein; also called RBP-BP SH3-III
T5 chain: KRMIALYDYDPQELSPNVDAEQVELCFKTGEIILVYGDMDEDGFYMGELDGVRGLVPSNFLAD
Described as above. As to conditions: both partners purified.

Assay [12] addresses T4, RBP SH3-II (residue 1318–1382; ITC and …). The assay is described as follows: crystal structure; co-crystallisation of the SH3 domain with a fivefold molar excess of peptide, sitting drop, 291 K. As to conditions: both partners purified.
Assay [13] concerns the target T6, RBP SH3-III (residue 1441–1507; crystallisation construct) (D. melanogaster).
T6 construct: pGEX-6P1, EcoRI/XhoI; linker residues may remain at the N-terminus after PreScission cleavage; source: E. coli BL21-CodonPlus-RIL, purified (glutathione sepharose, PreScission cleavage, Superdex 75); not shown: GST, N-terminal, cleaved
T6 chain: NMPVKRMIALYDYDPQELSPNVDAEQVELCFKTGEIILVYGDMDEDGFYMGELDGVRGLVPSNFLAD
The assay is described as above. As to conditions: both partners purified.

The target of assay [14] is T7, RBP SH3-II+III (ITC construct) (D. melanogaster).
T7 construct: Cloning and purification of this construct are not described; also called tandem SH3-II+III; RBP-BP SH3-II+SH3-III
T7 chain: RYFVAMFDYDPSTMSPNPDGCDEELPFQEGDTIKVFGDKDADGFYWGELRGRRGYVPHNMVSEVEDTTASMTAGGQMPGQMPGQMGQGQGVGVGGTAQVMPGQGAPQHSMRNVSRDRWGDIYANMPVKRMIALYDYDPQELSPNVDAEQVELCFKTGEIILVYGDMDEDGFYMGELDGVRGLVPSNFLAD
Briefly: ITC; 25°C, iTC200; RBP SH3-II and SH3-III at 150 µM, SH3-II+III at 78 µM in the cell, titrated with 16 injections of 2.5 µl peptide at 2 mM; 10 mM Tris-HCl pH 7.4, 100 mM NaCl; 'One Set of Sites' model. As to conditions: both partners purified.

In the case of Ac-TRRRRKLPEIPKNKK-NH2 [Aplip1], the “binding to RBP SH3-I” value in [1] is on record as “could not detect any binding”. The “affinity relative to RBP binding of its synaptic ligands (Ca2+ channels/RIM)” value in assay [2] is on record as “more than 10 fold”.

For the molecule “EDDELGDGLKVTLSSDGSLDTNDSFNSHRHHPLNHQDAIGGFLGMDTSGLGGNSAPVTIGASTDLLAPNTAATRRRRKLAEIAKNKKSSILHLLGGSNFGSLADEFRNGGGGGIPPAVRSGQQRSFLSLKCGYLMDEDS [Aplip1-AxxA1, Y2H prey fragment of Aplip1 (139 AA) with mutated first PxxP motif (P156 → A; P159 → A)]”, in [3], the “mean ß-Gal4 units: RBP SH3-II” value is given as 0.1 ± 0.1 ß-Gal4 units. The “mean ß-Gal4 units: RBP SH3-III” value in [4] is 0.2 ± 0.0 ß-Gal4 units.

In the case of “EDDELGDGLKVTLSSDGSLDTNDSFNSHRHHPLNHQDAIGGFLGMDTSGLGGNSAPVTIGASTDLLAPNTAATRRRRKLPEIPKNKKSSILHLLGGSNFGSLADEFRNGGGGGIPPAVRSGQQRSFLSLKCGYLMDEDS [Aplip1-PxxP1, Y2H prey fragment of Aplip1 (139 AA) containing only the first PxxP motif]”, the “mean ß-Gal4 units: RBP SH3-II” value in assay [3] is listed as 24.3 ± 6.6 ß-Gal4 units. For the same molecule, in assay [5], the “mean ß-Gal4 units: RBP SH3-II*” value is reported as 0.1 ± 0.0 ß-Gal4 units. Further, in [4], the “mean ß-Gal4 units: RBP SH3-III” value was 29.1 ± 7.4 ß-Gal4 units. In [6], the “mean ß-Gal4 units: RBP SH3-III*” value is 0.1 ± 0.0 ß-Gal4 units.

With “LLGGSNFGSLADEFRNGGGGGIPPAVRSGQQRSFLSLKCGYLMDEDSSPDSERMQSLGDVDSGHSTAHSPNDFKSMSPQITSPVSQSPFPPPFGGVPFGQ [Aplip1-PxxP2, Y2H prey fragment of Aplip1 (100 AA) containing only the second PxxP motif]”, the “mean ß-Gal4 units: RBP SH3-II” value in [3] is on record as 0.2 ± 0.0 ß-Gal4 units. The “mean ß-Gal4 units: RBP SH3-III” value in assay [4] was 0.2 ± 0.1 ß-Gal4 units.

B1: RIM1 peptide (GRQLPQVPVRSG) (peptide)
peptide: Ac-GRQLPQVPVRSG-NH2
notes: PxxP peptide named RIM1; May be a mammalian RIM1 motif or one of two motifs of Drosophila RIM; source: synthetic peptide (Leibniz Institute for Molecular Pharmacology)
With B1, the Kd in [7] is 10.4 µM; in [8], 16 µM; in [9], 8.4 µM. Besides, the binding result in assay [10] and in [11] was “binds” in each case.

B2: Cac peptide (1685-IGRRLPPTPSKPSTL-1699) (peptide)
peptide: Ac-IGRRLPPTPSKPSTL-NH2
notes: also called Cacophony peptide; Cac-derived peptide; source: synthetic peptide (Leibniz Institute for Molecular Pharmacology)
For B2, the results for the Kd in assay [7], in assay [8] and in assay [9] were 20.2 µM, 31.3 µM and 17.3 µM, respectively. Moreover, the binding result in [12], in [13] and in assay [11] was “binds” in each case.

B3: RIM2 peptide (GRQLPQLPPKGT) (peptide)
peptide: Ac-GRQLPQLPPKGT-NH2
notes: PxxP peptide named RIM2; May be a mammalian RIM2 motif or one of two motifs of Drosophila RIM; source: synthetic peptide (Leibniz Institute for Molecular Pharmacology)
On to B3, for which the Kd turned out to be 20 µM in assay [7], 35.7 µM in assay [8] and 12.5 µM in assay [9]. For the same molecule, the binding result in [10] and in assay [11] was “binds” each time.

B4: Aplip-PxxP1 peptide (149-TRRRRKLPEIPKNKK-163) (peptide)
peptide: Ac-TRRRRKLPEIPKNKK-NH2
notes: Aplip1, D. melanogaster, residues 149-163 with the first PxxP motif; also called Aplip1 peptide; Aplip1-PxxP1 peptide; source: synthetic peptide (Leibniz Institute for Molecular Pharmacology)
Consider B4, for which the Kd was determined as 4.1 µM in assay [7], 0.54 µM in assay [8] and 1.4 µM in assay [9]. For the same molecule, the binding result in assay [12], in assay [14] and in assay [11] was “binds” in each case.

Source of the values: article PMC4536467, “A high affinity RIM-binding protein/Aplip1 interaction prevents the formation of ectopic axonal active zones” (eLife, 2015).
